B2: Recombinant PRELP (rPRELP), human PRELP with a C-terminal FLAG tag, from Mimic Sf9 cells (natural protein, UniProt P51888 21-382, looked up)
chain: QPTRRPRPGTGPGRRPRPRPRPTPSFPQPDEPAEPTDLPPPLPPGPPSIFPDCPRECYCPPDFPSALYCDSRNLRKVPVIPPRIHYLYLQNNFITELPVESFQNATGLRWINLDNNRIRKIDQRVLEKLPGLVFLYMEKNQLEEVPSALPRNLEQLRLSQNHISRIPPGVFSKLENLLLLDLQHNRLSDGVFKPDTFHGLKNLMQLNLAHNILRKMPPRVPTAIHQLYLDSNKIETIPNGYFKSFPNLAFIRLNYNKLTDRGLPKNSFNISNLLVLHLSHNRISSVPAINNRLEHLYLNNNSIEKINGTQICPNDLVAFHDFSSDLENVPHLRYLRLDGNYLKPPIPLDLMMCFRLLQSVVI
notes: Proline and arginine-rich end leucine-rich repeat protein (PRELP), human; secreted into the supernatant; No cleavage of the FLAG tag is described; source: Mimic Sf9 (baculovirus), purified from the supernatant (DDDDK-tagged Protein Purification Gel twice, Benzonase, SEC)

How the values were obtained:
[1] = biological target: B2; test: SPR; Biacore 2000; rPRELP immobilised by amine coupling on CM5 at around 4000 RU; rsIGFI-R or rsp75NTR injected at 30 μl/min; 10 mM HEPES pH 7.5, 150 mM NaCl, 0.05% Tween-20, 15 °C; KD from fitting the equilibrium curve, three independent measurements; conditions: both partners purified
[2] = biological target: T1, Recombinant, soluble IGFI-R (rsIGFI-R), extracellular domain of human IGFI-R (residues 1-905) with a … (human, UniProt P08069 31-935); test: as above; conditions: both partners purified
T1 construct: Insulin-like growth factor 1 receptor, human, extracellular domain, residues 1-905; 31-935 of the precursor P08069; also called extracellular domain of IGFI-R; source: ExpiCHO, transiently transfected, purified from the supernatant (Ni-NTA, SEC)

B1: Recombinant, soluble p75NTR (rsp75NTR), extracellular domain of human p75NTR (residues 1-161) with a C-terminal hexahistidine tag (domain or fragment)
chain: KEACPTGLYTHSGECCKACNLGEGVAQPCGANQTVCEPCLDSVTFSDVVSATEPCKPCTECVGLQSMSAPCVEADDAVCRCAYGYYQDETTGRCEACRVCEAGSGLVFSCQDKQNTVCEECPDGTYSDEANHVDPCLPCTVCEDTERQLRECTRWADAECE
modifications: Printed residues 1-161 are read as mature numbering (signal 1-28, offset +28): 161+28=189 falls at the end of the fourth cysteine-rich repeat, and the same paper's IGFI-R 1-905 is mature numbering …
- Kd [1]: 12.1 µM

Binder: B2
- Kd [2]: 6.8 µM

Source: paper PMC7948961, “Proteomic identification and validation of novel interactions of the putative tumor suppressor PRELP with membrane proteins including IGFI-R and p75NTR” (The Journal of Biological Chemistry, 2021)
